assay: soluble fraction after stress (log2 fold change); higher = more stays soluble; pooled small domains, quantitative proteomics; settings: stress: pH 4
In short: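 How much of each domain stays soluble after acid stress, expressed as a fold change, is used to gauge aggregation propensity. Pooled custom libraries of small domains underwent pH 4 stress before high-throughput quantitative proteomics. A higher log2 value means more of the domain stayed soluble.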

Row | Sequence | soluble fraction (log2)
1 | HMGLSNYEFNSISQTVKEKLEQGPLTLKALVDETAHLFAEDKVVSVVQWLIDQRDLAYDDHGLLQWKG | -0.871
2 | HMSTMKSKWFVSSNPIAGVMKYQAQRKKDVNAVDSSENREASGQWYTDKEEAQAIVDKLNAEEQIKEAGK | 0.0846
3 | HMRPLTPLEKLTPDADGKYYHIVQSGETLSWIAKLYETTAEKLQAWNNLFSSDIFPNQKLLLQVTPP | -0.123
4 | HMRPHDDHLREQLLGIATETIARTGVEGLSLRTLATDAGTSTSAVYQLFGSRAALLDAVYLRVLE | -0.733
5 | HMSMSTVGERIKKKRKNLNFTQQELAAKLNISAQAVSKWENGVALPDLGLMPKLAQVLESTVDGLLGYQGA | -0.235
6 | HMPAVTEQTKTNLRRAFWQLYEQKPIQKITVKQITDLAGYNRGTFYLYFKDVYDLLDDIENK | -0.584
7 | HMYPFSEETLKEKIREYLKTNRSINRRVLEREFYIRKQTALNWLNRLVDSGFLIKEGVRNSPVYFLAE | 0.26
8 | HMINIDESIDESLSEDDAVLDLLERASASFTKAQEALLEGDLGRYQTLIEQADRLVAKALELLDEKN | -1.34
9 | HMATVNIGNLTFTHKGDYASGTTYAKNDVVYYSTNGNAYIAKQATQGNAPTSTAHWDVFAAGSGG | 0.145
10 | HMQLYSLEVLSKKKVDLIENNKNLINLYFNKENGEYSYRLIFKNRKELYQVKDTLDNSSDVVSIKLDL | -0.181
11 | HMEFTFTLPRGYIDDTGMIHREGTMRLANAADEILPLKDPRVQQNPGYLTIILLARVITKLGSL | -0.165
12 | HMRFGNHHVYRTLMVLSDQKRKGRKQIADAVGIGEGSMRTIIEYLRGLDMIDIRQTGVKITRHGNAFL | 0.138
13 | HMTSSVIIPKLIGKTEEEAKVALAGLNVQVLYETHGDQANGIVIKQSFEEGTKVIKGVSIVITVNKVS | -0.256
14 | HMRSPIWKSITATLTAEIAGGQYRAGDKLPTEAELSQRFGVNRHTLRRALAEMAGAGLVVARRGAGVFVQG | -0.289
15 | HMDEQVETLKNLISELPKEQLEVLVMRHYEDLSFKEISEKTGVSINTALGRMRYALINIRKLMKENN | -0.488
16 | HMIEIKNLSFSYGKKKQSVFNDFSLTLDKGSVYGLLGKNGTGKSTLLYLMTGLLRPQAGQVLYKGVDVS | 0.159
17 | HMSQDEVVADMKADLGPDADNIIRSNIQWADGLVRKGILTESEREELDVMGGTPEAQRILVKLRTMQG | -0.539
18 | HMRQVFPNPSSSQIKLASSRIGQAFSILDQQGRVVLSGKVSEEAVIALENLAKGIYVLKIGSWSETILK | 0.00122
19 | HMPDRQKDIQNWQQIAETLLNMLDKYVAALETGKTGLAEAYKAIFAETLRRLDDRLDPEQFLP | -1.3
20 | HMHFEWNELRKAINDFLAEQNMNEDKQLGPYFIQRDIVVPETGTEIDSKKFSEVFKHKVIMYLFDDAAKQ | -0.441
21 | HMNTEEKILEKEFLMLYSELGLQPKNIYELMENTGLKYEKLVEMLLQLQLKGLVEQPSYNYYSRL | -2.46
22 | HMDPEARRRAILNAAIDVIVEKGAAALTHRAVAARAGVSLGSTTKYFSSIEDLRENAMDALVREMD | -0.756
23 | HMNFEIEVTENGKRIDSYLAEELDLSRSKVQKLIKQELVTVNGKVVSNNYNVKLGDTILVNDD | 0.154
24 | HMQEPNYQPLMQNIKSQDLEEVTRLLSLNDVKFKIDHRTGLLLVESSRVYEAKMKLAATGITD | -1.15
25 | HMQQELDAFKLLITVSGVGPKAAMAVLSVLPPDRLSIAVSSGDVKSIQSAQGVGKKTAERIVLELKDKM | -0.976

Row | Sequence | soluble fraction (log2)
26 | HMANKTVPNVSGKTVAEARAIIENQSLQVGEEKEEYSDSVAEGYIIRTNPTAGSQKKEQSKIDLVVSKG | -0.211
27 | HMSLTEEQVDSGLKEIRLALLEADVALPVVKNFITNIKPKAIGQEIIRSTSPGQMIVKIVYDELVSIL | -0.85
28 | HMGISEKVINIIETYTMIARKKYPSVKSLAEHFNVSERTVHRYLEIIKMIDVVDYDREKKGYFFPYGDR | -0.462
29 | HMKRLPAQMGGGDGVLRVPGLNNFVYVTIADKTLPAFNNRVPPKKGLRIWVGYSPEEPNLFQVLSTRTD | 0.0233
30 | HMQTFGTMIAALRKEQGMTQLELAEKMGVTDKAVSKWERDLSFPDVNSLPKLAEIFHVSVDEL | 0.216
31 | HMTGSAETRGITLTDEQVTVWAKDGSWANYVYRATDGNWYDGSGRLYYENGGGEWTQAATGEQGS | -1.68
32 | HMELSPAELGERLKVARETANVTQDAGAKAAGIARTTLVAIEKGQRSARIDELQTLSRRYGVSVNSLLRR | 0.096
33 | HMSQIDLQIGHKIKSKRRKLGISQADMAKKLYISPSYLNLIESGKRKINVDLLLKLSNELGIEMSDIS | 0.33
34 | HMSSPVGIAQATTYVYVRAGHSMQAAKVGVLSPGEKVGVTGRSAQGFSEVVYNGVHRWVGSRYLSPT | ≥ 0.43
35 | HMANGTVKWFNTTKGFGFIAPETGGKDVFVHISAVERSGLTGLADDQKVTFDVEAGRDGRESAVNLAL | -0.613
36 | HMKDDLTWSEGLMPNVVGMGLRDAMFMLENSGLRVNYSGRGKVTRQSPQPGVRIKRGATVAIELRL | 0.0273
37 | HMNDQLIYSDFIRQVQDGQITEVTISGLNIAGTRSDGSVFNTLRPYIEDPKLIDDLLSHNVRIQGAE | -0.632
38 | HMARVSGIDLPKNKRGYIGLTYIYGIGRSTALHILNSAGVDPEKKVHEWNDDETTAIRNIINAEIKVEGAL | -0.248
39 | HMVFSNLGSRGEEVRQIQTKLKELGYLQGNVDGIYGNQTKQAVTAFQRDHGLSADGIAGEKTLAALGIG | 0.105
40 | HMIDSVFASYRQVALDDELWDKVRNGAVLPKVELFEVMDGPVLFTYQSKIVAMYEPHPTKAGYIKPRKMFL | -1.52
41 | HMAQDIEQLEKAVSFYTRMDPAAAALSITNLDQKTAVNILMRMKDKQASAVLESMTAERSSELIDSIARK | -0.863
42 | HMRSSNEAVSQRRDKILDYISATGRTSTEIVAKEFGVSVMTARRDLLYLMEKRLISKSSSGLFKVDNN | 0.408
43 | HMLDEIAGQKVRVLEEINNSEGTGKVMYRGVEWMARSVDDAVMAKDSIVTVQSISGVKLMVT | -0.498
44 | HMEHPNNTELTQKLELGTELMQYGDYNYALKVFNNVIDSDPEWSEAWNKRATVYFLMSQFTDSLSDIDRV | -0.17
45 | HMKSYQKITPATEGNYLTTYREGDDIKTYEGVKAMYTPADFDASSVREITPEEHQSYQKAKEQALQEETEQ | 0.0912
46 | HMGGLENNLKQARNRVGLTQSELARQAGISRQAYSSLESGAANPSTEVALRLAQALSERVESLFYLPE | -0.169
47 | HMQVLLTRREKEILKLIAEGLTSAEIGKRLFISTTTVDTHRKHLLEKLKAGNTAILIKTAVQLDLI | -0.223
48 | HMRKIVEGVLTKKEGKWYLLTDIETYKISDASAEYHKAELNDRASALIPAQNPKVPFASLEKVFN | 0.186
49 | HMEPDEYTVRQAFMKFDVGGEGRVPRDKLKALLETLGLELSAQQVRESEEQLDPEGTGFTSYGDFLMWWN | -1.33
50 | HMYIKYETVLQNITERIAALRKNGTLVLDGERTLAAEFDASRGTIRKAMRQLEENGTILREGYVTRILPE | -0.299

Row | Sequence | soluble fraction (log2)
51 | HMTGRVKWYDATKGFGFVTSDEGGDVFLPKGALPAGVADLKTGQRIEFGVVDSRKGAQALGVK | -0.22
52 | HMVAESGLPPAFRSTWRHIMQTRGAQLDVLAMRTGTDAASLQKQLHAMELGGWVRRMPGGWYVPLK | -0.1
53 | HMHPLFRVVLAGEPNGVGLDDWLTRHEAELINGPSAIGVLTVKIAMGRRSFETVLDEIRADGETIFVEPV | -2.02
54 | HMNLYHALDQQGEVYLTIPPRQSGRGKVTLMIDGRVREMDAMTDGDALKTGSKVRVTEILDENALKVEAM | -0.0493
55 | HMPLNAHIVGRGKRDRRGKRGAPYSIVLELGRDENGKRIQKWYSGYPTKAAAEEDKIRMLRELQTGEYVPQ | 0.153
56 | HMKTLNKRQQDIINLAREEGFVTVEHLSEYFKVTQQTIRRDLGYLSENLYLARTYGGAFFQS | -0.535
57 | HMAQISDESALYDLVKSVLDANPQSIADYKAGRDRALGFLMGQAMKLSKGKANPPVINKILKEMLDK | 0.292
58 | HMKFINISIDKSGNLFINKKSIKFQDLKYNVVNLVDESKNLVVLNADENISHGYVISVLDVLRSIDGLKLA | -0.802
59 | HMAYRLDVRNQTKGTYLVIQKKYWDKEKKQSRTKHHMSLGYVHDLQKLYSDPITHYKEVINQMNAEEKG | 0.0253
60 | HMSINIDEEKKILGPNADQIIKGITTWGQGLVSKGIWSDADFEEFKIFAATGNGINALNKVRKYY | -0.65
61 | HMRKEDYLPIGSVINMDDRKFRVDSVDFDKDKVSLQDMALADARMPIFWEEPLTVVRELYEQQDE | -0.899
62 | HMEPDEQAVKALIAEIDKLSKEKLTLKHEKKLKELREIYDDFTEEEKKLVTNYDILVKMEKRMEVLKKQEG | 0.19
63 | HMSELSEVIEKTFEELPEELKLIVKLREIDDLSYDEISNKIGIPIGTVRSRLHRAREILINIIKN | -1.01
64 | HMADYYETLGVERTASEEDIKRAYRKMSRKYHPDIAGPEFEEKFKEVNTAYEVLSDPDKRRMYDAGVDPND | 0.0648
65 | HMPDLSMLDEVLDEYRSQAGSLVTVLQKAQDLYGYLPLTILRHIAEEMNIKPAQVYGVATFYTQFRL | -0.866
66 | HMGIRYQLADDVTDEQITAMTGKKAKIAAAIKAAGSAVSKMNVAGEMGYDKQNPINKDFMELVDAGIIVPS | -0.121
67 | HMQKDYKTRLQEYYAKVGKKVNYMDSSTGPDHDKKFQTQVFLDKEIIGVGEGKSKKSSQQEAAKQALEKI | ≥ 0.43
68 | HMVSVLGRRIKELRLQNSMTQMQLAKKLGYKGNSLVAGWELGKNYPSVSSIKRLSEIFDTDLMKYVG | 0.22
69 | HMSQVSTKYINVSSAYVRSKPSKDGEIVTSLIKNTDVTVTGENGDWYKIKFNNYEGYIFKELLSDSKLEE | -0.35
70 | HMRMSLDEAKAVVLPIGEYKGRNMGEVLAIKPELIDFYASQKFNSSKYPYLKEAAQVILENQ | 0.0219
71 | HMGQNYTIVKGDSLWKIAQKQYGDGSQWKKIYDANKDAIESAAKKYGKKSSDSGKWIYPGVSLII | 0.134
72 | HMSFYSVVISQDGSMLVAENRNEIYSNEELLELASEVNEKTGTIGTIGSLMYYKADKGGYTLITFLDNS | -2.05
73 | HMTLSENEKIIVDTIMKYQPLHIDVLNQQVKVDFYTLLGLLTKLEMEGIVLKNPGNIYKINTL | -0.865
74 | HMRRMAYLVGQRGLAMGDFISGTGQVRIGDTVWRAEAVEGELVRTGDTVVVEGAKMTTAIVRRVM | -0.302
75 | HMVSVGDIFAGRIISNENGHLLLQLLDGSKISAQTVTDLKYNIGDVLNLEIIEEKQGLIFVRQT | -0.471

Source: the domain aggregation screens of Martell et al. (2025)
